Laboratory results as given in PMC8891067.

B1: bCerS (CCNA_01212) (Caulobacter vibrioides NA1000) (protein)
chain: MPFDSTNADLSVIPVKTPAELKRFIALPARLNAKDPNWITPLFMERTDALTPKTNPFFDHAEVQLFLATRGGRDVGRISAQIDQLTPQPTEGRLDGHFGMIAAEDDPAVFNVLFRAAEDWLRARGRTHAVGPFNLSINEEVGLLVWGFDTPPMVLMGHDPVYAGPRVEEQGYAKAQDLFAYKADETGDIPEIAQRRVKRGLPSGVVLRQLDMSRYDQEVQTLTEILNDAWSDNWGFTPTTEAETRQLAKSLKQVIDQRLVWFSEIDGEAAGVVVFLPNVNEAIADLKGKLLPFGWAKLLWRLKVKGVKSARIPLMGVKKKFQTSQRGRMLPFWMMKASRDMAMSLGYNRYEISWVLEANKAMTHIAENVGGTHYKTYRVYEKAL
B2: Spt (CCNA_01220) (Caulobacter vibrioides NA1000) (protein)
chain: MGLFDKHLAYRDAYKAIQDVGANPFKVRFDAVHSPTEGVVDGRPTILLGTNNYLGLTFDEQAIAASVKAVQERGTGTTGSRIANGSFESHVELEQELAKFYGRKHAMVFTTGYQANLGVLSTLVGRGDHLILDADSHASIYDGSRLGHAEVIRFRHNDPEDLAKRLRRLGDAPGERLIVVEGIYSMIGDVAPLKEIAAVKREMGGYLLVDEAHSMGVLGATGRGLAEAAGVEEDVDFIVGTFSKSLGAIGGFCVSDHDDFDVMRVICRPYMFTASLPPAVAASTVTALRRMIEQPELRDRLNRNAKRLYDGLTAMGFLTGPSASPIVAATMPDQERAIAMWNGLLQAGVYLNLALPPATPDSRPLLRASVSAAHTDEQIDAVLKTYGEIGAALGVIEPLKRARA

How the values were obtained:
purified protein [1] = substrate: CCCCCCCCCCCCCCCC(=O)SCCNC(=O)CCNC(=O)[C@H](O)C(C)(C)COP(=O)(O)OP(=O)(O)OC[C@H]1O[C@@H](n2cnc3c(N)ncnc32)[C@H](O)[C@@H]1OP(=O)(O)O; test: purified protein; type: biochemical, Caulobacter vibrioides; details: 100 mM HEPES
purified protein [2] = substrate: N[C@@H](CO)C(=O)O; test: purified protein; type: biochemical, Caulobacter vibrioides; details: 250 μM C16:0-CoA, 100 mM HEPES, 250 mM NaCl, pH 7.0, 30 °C

Protein	Km (purified protein [1]; with 3-KDS (40 μM), 150 mM NaCl, pH 7.5, 30 °C) [µM]	Km (purified protein [2]) [µM]	Km (purified protein [1]; 20 mM L-serine, 250 mM NaCl, pH 7.0, 30 °C) [µM]
B1	21.3 ± 4.1	–	–
B2	–	2980 ± 250	110.40 ± 13.37
